In article PMC3397948, “Cytoplasmic Sulfurtransferases in the Purple Sulfur Bacterium Allochromatium vinosum: Evidence for Sulfur Transfer from DsrEFH to DsrC” (PLoS ONE, 2012) one finds response data, which are given here for 3 variants.

The labels stand for the following.
B1: DsrC from Allochromatium vinosum, wild type [Allochromatium vinosum] / DsrEFH from Allochromatium vinosum (DsrE2F2H2 heterohexamer), wild type [Allochromatium vinosum] (parent complex)
chain 1: MADTIEVDGKQFAVDEEGYLSNLNDWVPGVADVMAKQDNLELTEEHWDIINFLREYYEEYQIAPAVRVLTKAVGKKLGKEKGNSKYLYSLFPYGPAKQACRFAGLPKPTGCV
chain 2: MKFALQINEGPYQHQASDSAYQFAKAALEKGHEIFRVFFYHDGVNNSTRLTTPPQDDRHIVNRWAELAEQYELDMVVCVAAAQRRGIVDEGEASRNGKDATNIHPKFRISGLGQLVEAAIQADRLVVFGD
chain 3: MSEVVKKFMYLNRKAPYGTIYAWEALEVVLIGAAFDQDVCVLFLDDGVYQLTRGQDTKGIGMKNFSPTYRTLGDYEVRRIYVDRDSLEARGLTQDDLVEIAFEDMETEEEFDNIVEVIDSARVSELMNESDAVFSF
chain 4: MSILHTVNKSPFERNSLESCLKFATEGASVLLFEDGIYAALAGTRVESQVTEALGKLKLYVLGPDLKARGFSDERVIPGISVVDYAGFVDLTTECDTVQAWL

The experiment covers variants of B1. As to the kind of experiment: SPR; DsrEFH immobilized; reduced analyte, 80 nM; parent: 35; read off a plot. A general note: SPR reads the build-up and loss of mass on a sensor chip optically.
On to chain 1 MADTIEVDGKQFAVDEEGYLSNLNDWVPGVADVMAKQDNLELTEEHWDIINFLREYYEEYQIAPAVRVLTKAVGKKLGKEKGNSKYLYSLFPYGPAKQACRFAGLPKPTGSV [chain 1 C111S], for which the response was around 3 RU.

For the variant chain 1 MADTIEVDGKQFAVDEEGYLSNLNDWVPGVADVMAKQDNLELTEEHWDIINFLREYYEEYQIAPAVRVLTKAVGKKLGKEKGNSKYLYSLFPYGPAKQASRFAGLPKPTGCV [chain 1 C100S], the response was around 31 RU. For the variant chain 1 MADTIEVDGKQFAVDEEGYLSNLNDWVPGVADVMAKQDNLELTEEHWDIINFLREYYEEYQIAPAVRVLTKAVGKKLGKEKGNSKYLYSLFPYGPAKQASRFAGLPKPTGSV [chain 1 C100S, chain 1 C111S], the response is around 2.8 RU.
